According to patent US12637513B2, “Method of treating cancer by administering an inhibitor of erythropoietin receptor activity comprising either erythropoietin receptor or erythropoietin protein” (ImmunEdge, Inc., priority 2022, dated 2026):
Each block holds one molecule with its values, some of them ahead of it.

Tests used:
[1] = biological target: Glucosidase; conditions: target Glucosidase; cited from earlier work
[2] = system: PHD1-3; conditions: target PHD1-3; cited from earlier work
[3] = biological target: PHD2 (Homo sapiens, UniProt Q9GZT9); conditions: target PHD2; cited from earlier work
[4] = system: CD11c^IntMHCII^HighXCR1^+ cDC1s / OT-II cells; assay: In vitro Ag-specific Treg induction: pLN cDC1s loaded with Ova-thy cells and naïve OT-II cells; type: cell-based, mouse; conditions: untreated cells 25.5%
[5] = biological target: T1, hetero-EPOR (Homo sapiens, UniProt P19235+P32927); conditions: cited from earlier work
T1 sequence (P19235 25-508): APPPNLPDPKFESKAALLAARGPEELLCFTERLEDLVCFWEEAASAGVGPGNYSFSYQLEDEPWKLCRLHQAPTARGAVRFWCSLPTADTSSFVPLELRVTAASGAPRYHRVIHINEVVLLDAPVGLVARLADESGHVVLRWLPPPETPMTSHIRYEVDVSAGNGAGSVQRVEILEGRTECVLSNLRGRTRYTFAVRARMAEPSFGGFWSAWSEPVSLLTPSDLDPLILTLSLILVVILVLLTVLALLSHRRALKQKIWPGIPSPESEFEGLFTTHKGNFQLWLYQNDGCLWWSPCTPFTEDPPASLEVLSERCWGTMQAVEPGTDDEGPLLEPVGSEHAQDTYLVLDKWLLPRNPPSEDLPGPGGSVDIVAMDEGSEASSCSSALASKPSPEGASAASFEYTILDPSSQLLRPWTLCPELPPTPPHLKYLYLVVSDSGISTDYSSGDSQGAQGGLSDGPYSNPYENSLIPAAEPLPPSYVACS
T1 sequence (P32927 17-897): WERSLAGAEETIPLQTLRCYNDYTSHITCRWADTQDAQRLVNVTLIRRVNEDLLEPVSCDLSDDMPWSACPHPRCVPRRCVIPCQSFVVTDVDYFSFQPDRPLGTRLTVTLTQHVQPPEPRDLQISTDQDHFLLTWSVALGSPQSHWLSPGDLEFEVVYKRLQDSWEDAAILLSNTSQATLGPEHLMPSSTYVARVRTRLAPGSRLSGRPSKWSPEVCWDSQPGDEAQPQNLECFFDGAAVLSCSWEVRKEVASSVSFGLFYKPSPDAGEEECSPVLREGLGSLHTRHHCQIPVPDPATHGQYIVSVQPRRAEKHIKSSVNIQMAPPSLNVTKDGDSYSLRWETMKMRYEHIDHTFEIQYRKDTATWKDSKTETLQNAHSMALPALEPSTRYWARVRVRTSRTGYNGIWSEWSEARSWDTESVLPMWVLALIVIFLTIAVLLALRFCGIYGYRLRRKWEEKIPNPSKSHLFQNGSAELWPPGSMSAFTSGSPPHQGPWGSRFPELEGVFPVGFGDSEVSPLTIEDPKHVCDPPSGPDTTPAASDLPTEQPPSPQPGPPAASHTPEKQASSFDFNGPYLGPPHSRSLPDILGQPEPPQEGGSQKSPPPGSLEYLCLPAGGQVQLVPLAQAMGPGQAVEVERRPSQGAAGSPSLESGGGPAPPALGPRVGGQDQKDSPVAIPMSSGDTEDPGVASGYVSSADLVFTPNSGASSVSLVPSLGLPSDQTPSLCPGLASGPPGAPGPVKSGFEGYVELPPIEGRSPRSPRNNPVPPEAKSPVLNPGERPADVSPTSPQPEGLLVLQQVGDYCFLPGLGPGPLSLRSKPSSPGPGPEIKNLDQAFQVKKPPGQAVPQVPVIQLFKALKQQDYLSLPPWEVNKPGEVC

[6] = system: Hypoxia-Inducible Factor (HIF); conditions: target cell empty; cited from earlier work
[7] = biological target: T2, EPOR-Fc (Homo sapiens, UniProt P19235); assay: Bio-layer interferometry (Octet) binding of hybridoma antibodies to EPOR-Fc; conditions: hybridoma supernatants; 30 nM soluble receptor
T2 construct: The extracellular domains of EPOR or CD131 are produced as soluble Fc fusion proteins; purchased Sino Biological 10707-H02H
T2 sequence (P19235 25-250 limits assumed): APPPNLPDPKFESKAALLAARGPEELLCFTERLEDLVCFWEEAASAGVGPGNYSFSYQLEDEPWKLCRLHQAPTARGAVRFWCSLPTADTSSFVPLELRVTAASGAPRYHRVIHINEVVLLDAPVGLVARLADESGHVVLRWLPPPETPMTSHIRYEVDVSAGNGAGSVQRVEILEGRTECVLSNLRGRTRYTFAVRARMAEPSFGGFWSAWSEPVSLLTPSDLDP
Text: (§1) The B cells from ATX-GK mice were fused with mouse myeloma cells to generate hybridoma. The hybridoma cells were screened twice. In the first screening, 293 cells expressing human EPOR, human CD131, or both were used as the primary screen. 87 hybridoma antibodies have been isolated by positive staining on 293T cells expressing human EPOR (hEPOR), human CD131 (hCD131), or both, with the hybridoma supernatants (Table 11 and FIG. 17). Expression of EPOR and CD131 was confirmed by flow cytometry with Phycoerythrin (PE)-labeled anti-EPOR (R&D Systems, Cat #FAB307P) and Alexa Fluor® 647 (AF647)-labeled anti-CD131 (BD Biosciences, Cat #564191), respectively (FIG. 28B). All hybridoma clones were purified and sequenced. Binding kinetics with soluble hetero-EPOR (EPOR-CD131-Fc), soluble EPO receptor subunit of hetero-EPOR (EPOR-Fc), and soluble CD131 subunit of hetero-EPOR (CD131-Fc) were measured using bio-layer interferometry (Octet®) by capturing the hybridoma antibodies in the supernatants on biosensors coated with anti-mouse Fc first and dipping the biosensors into the solutions containing 30 nM of the soluble receptor Fc fusion proteins. The supernatants were also used to block the interaction between EPO and EPOR. The soluble EPOR-CD131-Fc was first captured on biosensors coated with anti-human Fc and then dipped into 10 nM of EPO with or without the hybridoma supernatants. […]

[8] = biological target: T3, EPO/EPOR interaction (EPOR-CD131-Fc and EPO) (Homo sapiens, UniProt P19235+P32927); assay: Octet blocking of the EPO/EPOR interaction by hybridoma supernatants; type: binding; conditions: EPO 10 nM
T3 construct: Chimeric Fc fusion proteins of the extracellular domains of human EPOR and human CD131; purchased Sino Biological CT010-H02H
T3 sequence (P19235 25-250 limits assumed): T2 sequence (P19235 25-250 limits assumed)
T3 sequence (P32927 17-443 limits assumed): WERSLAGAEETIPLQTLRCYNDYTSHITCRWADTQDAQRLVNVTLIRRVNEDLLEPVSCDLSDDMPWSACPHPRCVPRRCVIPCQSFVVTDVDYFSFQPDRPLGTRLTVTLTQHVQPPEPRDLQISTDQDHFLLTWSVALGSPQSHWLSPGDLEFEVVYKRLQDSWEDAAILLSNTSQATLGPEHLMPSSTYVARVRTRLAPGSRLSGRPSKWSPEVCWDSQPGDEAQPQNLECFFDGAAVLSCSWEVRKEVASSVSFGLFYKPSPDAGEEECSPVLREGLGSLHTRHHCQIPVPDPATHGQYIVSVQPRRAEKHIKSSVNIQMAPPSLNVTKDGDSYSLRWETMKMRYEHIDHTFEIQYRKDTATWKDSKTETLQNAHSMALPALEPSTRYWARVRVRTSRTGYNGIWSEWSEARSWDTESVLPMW

[9] = biological target: T4, soluble hetero-EPOR (EPOR-CD131-Fc) (Homo sapiens, UniProt P19235+P32927); assay: Bio-layer interferometry (Octet) binding of hybridoma antibodies to EPOR-CD131-Fc; conditions: hybridoma supernatants; 30 nM soluble receptor
T4 construct: Chimeric Fc fusion proteins of the extracellular domains of human EPOR and human CD131; purchased Sino Biological CT010-H02H
T4 sequence (P19235 25-250 limits assumed): T2 sequence (P19235 25-250 limits assumed)
T4 sequence (P32927 17-443 limits assumed): T3 sequence (P32927 17-443 limits assumed)
Text: as §1

[10] = biological target: T5, EPOR (UT-7 cells) (Homo sapiens, UniProt P19235); assay: Flow-based phosphorylated Stat5 assay, blocking by anti-EPOR antibodies; type: cell-based; conditions: 20 μg/ml antibody; 0.1 μg/ml recombinant human EPO
T5 construct: endogenous in cells; host or cells: UT-7 human leukemia cells
T5 sequence (P19235 25-508): T1 sequence (P19235 25-508)
Method: EPOR activation leads to phosphorylation of Stat5. A flow-based assay on phosphorylated Stat5 was set up to test the blocking activities of anti-EPOR antibodies. The UT-7 cells were cultured without GM-CSF for overnight before the EPO stimulation. 3×10^6 cells/ml were incubated with 20 μg/ml of anti-EPOR for 15 minutes before stimulation with 0.1 μg/ml of recombinant human EPO (Peprotech®, Cat #100-64) for 10 minutes at 37° C. The cells were fixed immediately with fixation buffer (Cytofix™ buffer; BD Biosciences, Cat #554655) and permeabilized with methanol. After washing, cells were stained with PE labeled anti-Stat5 (BD Biosciences, Cat #612567) and subjected to flow cytometry analysis.

[11] = biological target: T6, 293T/EPOR cells (Homo sapiens, UniProt P19235); assay: Staining of 293T/EPOR cells with purified antibodies (flow cytometry); type: binding
T6 construct: expressed in transfected cells; host or cells: 293T cells expressing hEPOR
T6 sequence (P19235 25-508): T1 sequence (P19235 25-508)
Method: (§2) The purified antibodies were used to stain the human leukemia UT-7 cells, 293T/EPOR, 293T/CD131, and 293T/EPOR/CD131 cells to confirm antigen binding. The UT-7 cells were maintained in Roswell Park Memorial Institute (RPMI) with 10% Fetal Bovine Serum (FBS) and 5 ng/ml of recombinant human GM-CSF (Peprotech®, Cat #300-03). The 293T cells expressing hEPOR, hCD131, or both were maintained in Dulbecco's Modified Eagle Medium (DMEM) with 10% FBS. 1×10^6 cells/ml were incubated with purified hybridoma clones M2 and M41 at a 3-fold dilution series starting from 20 μg/ml for 30 minutes at 4° C. After washing, the cells were incubated with PE labeled secondary antibody and subjected to flowcytometric analysis. […] The binding profiles of the 293T/EPOR/CD131 cells are similar except the peak MFIs around 1500, half of that of the 293T/EPOR cells (FIG. 29B).

[12] = biological target: T7, 293T/CD131 cells (Homo sapiens, UniProt P32927); assay: Staining of 293T/CD131 cells with purified antibodies; type: binding
T7 construct: expressed in transfected cells; host or cells: 293T cells, lentiviral transduction
T7 sequence (P32927 17-897): T1 sequence (P32927 17-897)
Method: as §2

[13] = biological target: T8, 293T/EPOR/CD131 cells (Homo sapiens, UniProt P19235); assay: Staining of 293T/EPOR/CD131 cells with purified antibodies; type: binding
T8 construct: expressed in transfected cells; host or cells: 293T cells, lentiviral transduction
T8 sequence (P19235 25-508): T1 sequence (P19235 25-508)
Method: as §2

Sequence of PHD2 (Q9GZT9 whole entry): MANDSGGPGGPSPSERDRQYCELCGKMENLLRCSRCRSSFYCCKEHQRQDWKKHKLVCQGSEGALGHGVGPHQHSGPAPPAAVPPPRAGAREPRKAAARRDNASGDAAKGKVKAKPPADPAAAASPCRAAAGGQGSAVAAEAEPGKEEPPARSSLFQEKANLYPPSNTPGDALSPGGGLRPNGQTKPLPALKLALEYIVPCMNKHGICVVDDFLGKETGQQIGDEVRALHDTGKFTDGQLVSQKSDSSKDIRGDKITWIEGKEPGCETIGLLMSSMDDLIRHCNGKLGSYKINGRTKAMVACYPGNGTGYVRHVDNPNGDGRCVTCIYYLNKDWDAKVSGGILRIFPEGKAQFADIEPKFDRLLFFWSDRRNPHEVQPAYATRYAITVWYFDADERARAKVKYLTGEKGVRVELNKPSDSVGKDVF

Molecule: O=c1cc(-c2ccc(O)cc2)oc2c([C@@H]3O[C@H](CO)[C@@H](O)[C@H](O)[C@H]3O)c(O)cc(O)c12 [Vitexin]
IC50 [1]: 48 nM

Molecule: O=C(O)CNC(=O)C1=C(O)CCN(Cc2ccc(Oc3ccc(Cl)cc3)nc2)C1=O [TP0463518]
IC50 [2]: 5.3 to 63 nM

Molecule: O=C(O)CNC(=O)c1c(O)c2ccccc2n(Cc2ccccc2)c1=O [IOX2]
IC50 [3]: 21 nM

Molecule: CEPO: chemically modified EPO analog in which the Lys residues are carbamylated [reference compound]
FoxP3 expressing cells [4]: 69.3%

Molecule: COc1ccc(C(NC(=O)c2cnc(-c3cccnn3)nc2O)c2ccc(OC)cc2)cc1 [MK-8617]
IC50 [2]: 1 to 14 nM

Molecule: QEQLERALNSS
activity for the hetero-EPOR [5]: activates the hetero-EPOR

Molecule: CN1CCN(C(=O)COc2ccc(C34CC5CC(CC(C5)C3)C4)cc2)CC1 [IDF-11774]
IC50 [6]: 3650 nM

Molecule: O=C(O)CNC(=O)c1c(O)cc(CCc2ccccc2)n2ncnc12 [Enarodustat]
IC50 [3]: 220 to 5700 nM

binding to EPOR-Fc [7]: potent binding | blocking of the EPO/EPOR interaction [8]: partial blocking | binding to EPOR-CD131-Fc [9]: potent binding
B1: EPORab - M1: hybridoma antibody clone, VH/VK in Table 10 (antibody, V domains shown)
VH: QVQLQESGPGLVKPSQTLSLTCTVSGGSISSGGYYWSWIRQHPGKGLEWIGNIYYSGNPYYNPSLKSRLIISVDTSKNQFSLRLNSVTAADTAVYYCATFYYGSGSYYNEDYWGQGTLVTVSS
VL: DIQMTQSPSSLSASVGDRVTITCRASQGIRIDLGWYQQKPGKAPKRLIYAASSLKSGVPSRFSGSGSGTEFTLTISSLQPEDFTTYFCLQHNSYPYTFGQGTKLEIK

blocking of Stat5 phosphorylation [10]: partial blocking | binding to 293T/EPOR cells ([11]; 0.74 μg/ml purified antibody): lost most of the binding | binding to 293T/EPOR cells ([11]; 20 μg/ml purified antibody): robust binding activities | blocking of the EPO/EPOR interaction [8]: partial blocking | staining of 293T/CD131 cells [12]: did not stain | peak MFI [13]: around 1500
B2: EPORab - M41: hybridoma antibody clone, VH/VK in Table 10 (antibody, V domains shown)
VH: QVQLVESGGGLVQPGRSLRLSCAASGFTFDDYAIHWVRQAPGKGLEWVSGISYNSENIGYADSVKGRFTISRDNAKNSLYLQMNSLRSEDTALYYCAKDMFLTWFSSFDYWGQGTLVTVSS
VL: ETKLTQSPGTLSLSPGERTTLSCRASQSISNNYLAWYQQKPGQAPRLLIYRASTRATGIPDRFSGSGSGTDFTLTIRRLEPEDFAVYYCQRYGRSPLTFGGGTKVEIK
